Laboratory results published in PMC10557607 (bioRxiv, 2023).

Molecular target: the molecule itself
Assay: SEC + other: dynamic light scattering

B1: AlbB expressed alone (natural protein, Streptomyces noursei)
chain: MNPGETVLPPQLREEIALLAVYLLSSGRGLLEEPADYGIYRCTDGARRALQLLDEHGGSTARLTAVRERLDEVMFAPMGEDRDMGAILDDLCRQMADALPEIETP
- stoichiometry N: 2
